Data: patent US20220228157A1, “GENE EDITING IN DIVERSE BACTERIA” (priority 2019, published 2022)

B1: MspRecT: RecT variant known to enable high genome editing efficiency in M. smegmatis (protein)
chain: MAENAVTKQDSPKAPETISQVLQVLVPQLARAVPKGMDPDRIARIVQTEIRKSRNAKAAGIAKQSLDDCTQESFAGALLTSAALGLEPGVNGECYLVPYRDTRRGVVECQLIIGYQGIVKLFWQHPRASRIDAQWVGANDEFHYTMGLNPTLKHVKAKGDRGNPVYFYAIVEVTGAEPLWDVFTADEIRELRRGKVGSSGDIKDPQRWMERKTALKQVLKLAPKTTRLDAAIRADDRPGTDLSQSQALALPSTVKPTADYIDGEIAEPHEVDTPPKSSRAQRAQRATAPAPDVQMANPDQLKRLGEIQKAEKYNDADWFKFLADSAGVKATRAADLTFDEAKAVIDMFDGPNA
B2: L1SSB: single-stranded binding protein from L. lactis (protein)
chain: MINNVVLVGRITRDPELRYTPQNQAVATFSLAVNRQFKNANGEREADFINCVIWRQQAENLANWAKKGALIGVTGRIQTRNYENQQGQRVYVTEVVADSFQMLESRSARDGMGGGASAGSYSAPSQSTNNTPRPQTNNNSATPNFGRDADPFGSSPMEISDDDLPF
B3: SR024: SSAP candidate (protein)
chain: MAIDNQSTKVITGKVRLSYTHVFEPQENDSGDMKYSTAILIPKSDKETLRKIKAAVDAAKELGKSKWGGKIPANCKTPLRDGDEERPDDEAYAGHYFLNASSKNKPGVAKPIGKDGNGKTKFQEITDSTEVYSGCYAKVSLNFYPFDAKGNRGVAAGLNNIVKVQDGDFLGGRSSVNDDFANEDFDDIVDISDDDDFLN
modifications: Paenibacillus lactis 154
notes: SSAP candidate
B4: SR041: SSAP candidate (protein)
chain: MAKIKLTNVRIAFINNLRTPAEFEAGDGKFRYSATFLVEKGSANDKAIEAAIKSVAVEGWAKKADAMLESFRSNSNKFCYQNGDLKDFDGFEGNMYIAAHRKRDDGRPLLLDNVADPETGKPARLVDANGEWLAGKEGRIYAGCYVNATIDIYAQTKTNPGIRCGLMGVQYHGPGDSFSGASRANEDDFEATAPETEDELD
modifications: Burkholderia phage BcepC6B
notes: SSAP candidate
B5: PF003: SSAP candidate (protein)
chain: MAENEKQALLQEENKSENVVSTVKRTALATNPFSDTDQFNNIFKMAQLISQSDMIPATYKGKPMNCVIALEQANRMGVSPLMVMQNLYVVKGVPSWSGQGCMMIIQGCGKFRDVDYVYSGEKGTDSRSCKVVATRISDGKRIEGTEITMQMVKSEGWISNTKWKNMPEQMLGYRAATFFARMYCPNELNGFATEGEAEDMNHKPQRIEAINVLGDTAHE
modifications: Clostridium sp FS41
notes: SSAP candidate
B6: SR063: SSAP candidate (protein)
chain: MHLIHQSGEVKMQLSPETNEILPALFNARNKFAKAKKDAKNNHLKNSYATLDAMMAAVSPALTDNDIMILQSMLDTSTETTFHLETMLIHKSGQWAKFFMMMPIAKRDPQGVGSAMTYARRYSLAAALGISQSDDDAQLAVKSVKDWKKELDACEDIESLKDVWANAYRQTDTASKSIIQDHYNALKAKFEIGKARGIRPAQPEQKKQVEATSAKPVQSQSITNFE
modifications: Bacteriophage T1
notes: SSAP candidate
B7: SR081: SSAP candidate (protein)
chain: MSKEFYARLAAIQENLNAPKNQYNSFGKYKYRSCEDILEGVKPLLNGLFLSISDEVVLIGDRYYVKATATITDGENSHTATALAREEESKKGMDSAQVTGATSSYARKYCLNGLFGIDDAKDADTDEHKHQQNAAAKQSNPSPTPEQVLKAFTDAAMQKNTVEELKQAFAKAWKMLEGTPEQHKAQDVYNIRRDELEGAAA
modifications: Bacteriophage HK022
notes: SSAP candidate
B8: SR033: SSAP candidate (protein)
chain: MADYEEQMLALQKPLQPDRVVWRVQQSGFSKQGKPWAMVLAYMDNRAVQERFDEVFGIAGWKNEFKTAPDGGTLCGISVKFGDEWVTKWDGAENTQVEAVKGGLSGSMKRAAVQWGVGRYLYDLPTSFAQTSLEKTDGWNKVFDKNSKKNFWWKNPQLPSWALPQNSKVQNTKADFTEEEIPNPPKLYVVGKDKKEFDEKKLQAVVNKMAIIAGKDYGASVDEQNDWLKMPLDEAYNDIEKFVDIKKEEQND
modifications: Lactococcus phage bIL286,Lactococcus lactis subsp lactis (strain IL1403) (Streptococcuslactis)
notes: SSAP candidate
B9: LlMutL.E33K: L. lactis MutL carrying the equivalent dominant negative mutation, SEQ ID NO: 513 (protein)
chain: MGKIIELNEALANQIAAGEVVERPASVVKELVKNSIDAGSSKIIINVEEAGLRLIEVIDNGLGLEKEDVALALRRHATSKIKDSADLFRIRTLGFRGEALPSIASVSQMTIETSNAQEEAGTKLIAKGGTIETLEPLAKRLGTKISVANLFYNTPARLKYIKSLQAELSHITDIINRLSLAHPEISFTLVNEGKEFLKTAGNGDLRQVIAAIYGIGTAKKMREINGSDLDFELTGYVSLPELTRANRNYITILINGRFIKNFLLNRAILEGYGNRLMVGRFPFAVLSIKIDPKLADVNVHPTKQEVRLSKERELMTLISKAIDETLSEGVLIPEALENLQGRAKEKGTVSVQTELPLQNNPLYYDNVRQDFFVREEAIFEINKNDNSDSLTEQNSTDYTVNQPETGSVSEKITDRTVESSNEFTDRTPKNSVSNFGVDFDNIEKLSQQSTFPQLEYLAQLHATYLLCQSKEGLYLVDQHAAQERIKYEYWKDKIGEVSMEQQILLAPYLFTLPKNDFIVLAEKKDLLHEAGVFLEEYGENQFILREHPIWLKETEIEKSINEMIDIILSSKEFSLKKYRHDLAAMVACKSSIKANHPLDAESARALLRELSTCKNPYSCAHGRPTIVHFSGDDIQKMFRRIQETHRSKAASWKDFE

Key:
[1] = test system: 90 bp oligos pre-coated with SSB; assay: Oligonucleotide annealing and quenching in vitro; assay type: biochemical; conditions: two 90 bp oligos pre-coated with SSB
Excerpt: It was first whether two 90 bp oligos could anneal if they were pre-coated with SSB. SSBs was purified from E. coli (gram-negative), where most recombineering work has been performed, and L. lactis (gram-positive), a lactic acid bacterium phylogenetically distantly related to E. coli. […] It was next tested capacity of a phage RecT protein to overcome this SSB-mediated inhibition of annealing. Thus, Redβ, which is not broadly portable, but mediates efficient oligonucleotide annealing in E. coli, was purified. […] These preliminary results gave us an indication that while bacterial SSBs inhibit oligonucleotide annealing in vitro, RecTs overcome the inhibitory effect in an SSB-specific manner.
Fluorescent (tolC-r.null.mut-3′FAM) and quenching (tolC-f.null.mut-5′IBFQ) oligos were ordered from Integrated DNA Technologies. Unless otherwise indicated, 50 nM of each oligo was incubated in 25 mM TRIS-HCl pH 7.4 with 1.0 μM Ec_SSB or Ll_SSB at 30° C. for 30 minutes. 100 μl of each oligo mixture were then combined into a 96-well clear-bottom black assay plate (Costar), incubated a further 60 minutes at 30° C., and annealing was tracked on a Synergy H4 microplate reader (BioTek) with fluorescence excitation set to 495 nm and emission set to 520 nm. After 60 minutes, 20 μl of a solution with or without 25 μM Redβ and containing 100 mM MgCl2 was added to achieve a final reaction concentration of 2.5 μM Redβ and 10 mM MgCl2. The annealing was then tracked over 10 hours in a the Synergy H4 microplate reader with the setting indicated above.

E. coli = assay: Allelic recombination frequency, selective vs non-selective plates; assay type: cell-based, Escherichia coli; conditions: RecT alone
Experimental: (§1) Four variants known to enable high genome editing efficiency were selected (Redβ and PapRecT in E. coli, LrpRecT in L. lactis, and MspRecT in M. smegmatis), and tested codon optimized versions of all four in both E. coli (gram-negative), and L. lactis (gram-positive). Genome editing efficiency was measured by introducing oligos encoding known antibiotic resistance mutations, and compared the antibiotic resistant cell counts to the total number of viable cells in the population (FIGS. 17E-17F). […] In L. lactis, LrpRecT was the only functional homolog, and improved oligo incorporation 7,700-fold, while the three other RecT variants were nearly non-functional, improving oligo incorporation less than 7-fold (FIG. 17H). No RecT protein functioned well both in E. coli and L. lactis.
A single colony of E. coli was grown overnight to saturation. In the morning 30 μL of dense culture was inoculated into 3 mL of fresh media and grown for 1 hour. To induce gene expression of the pARC8 vector for recombineering experiments, L-arabinose was added to a final concentration of 0.2% (w/v) and the cells were grown an additional hour. 1 mL of cells were pelleted at 4° C. by centrifugation at 12,000×g for 2.5 minutes and washed twice with 1 mL of ice-cold dH2O. Cells were resuspended in 50 μL ice-cold dH2O containing DNA and transferred to a pre-chilled 0.1 cm electroporation cuvette.
(§2) Electrocompetent cells were electroporated with 90-mer oligos at: 1 uM for E. coli, 50 μg for L. lactis, and 10 uM for C. crescentus. 70-mer oligos were used at 1 μg for M. smegmatis. All oligos were obtained from IDT and can be found under “Oligonucleotides for genome editing” in materials and methods. For dsDNA experiments L. lactis was electroporated with 1.5 μg purified linear dsDNA. Cells were electroporated using a Bio-Rad gene pulser set to 25 μF, 200 S2, and 1.8 kV for E. coli, 2.0 kV for L. lactis, and 1.5 kV for C. crescentus and to 1000Ω and 2.5 kV for M. smegmatis. Immediately after electroporation, cells were recovered in fresh media for 3 hours for E. coli, 1 hour for L. lactis, overnight for M. smegmatis and overnight for C. crescentus. L. lactis recovery media was supplemented with MgCl2 and CaCl2) at a concentration of 20 mM and 2 mM, respectively. E. coli recovery media was supplemented with carbenicillin. M. smegmatis recovery media was supplemented with hygromycin. C. crescentus recovery media was supplemented with 0.3% xylose and kanamycin. After recovery, the cells were serial diluted and plated on non-selective vs. selective agar plates to obtain approximately 50-500 CFU/plate. Colonies were counted using a custom script in Fiji, and allelic recombination frequency was calculated by dividing the number of colonies on selective plates, with the number of colonies on non-selective plates.

L. rhamnosus = assay type: cell-based
Experimental: Finally, the model for RecT was used to establish recombineering in L. rhamnosus, a well-studied probiotic used to treat a variety of illnesses including diarrhea and bacterial vaginosis. Although the L. rhamnosus SSB and L. lactis SSB only have 47% identity, they share identical SSB C-terminal tail 7 amino acids. It was determined whether LrpRecT (which functions in L. lactis) is portable to L. rhamnosus, while the other RecT proteins would not be functional.

Staphylococcus aureus = assay: SSAP candidate enrichment; assay type: cell-based
Experimental: The editing efficiency of SSAP candidates was also tested in Agrobacterium tumefaciens and in Staphylococcus aureus using the methods described above.

L. lactis = assay: Allelic recombination frequency, selective vs non-selective plates; assay type: cell-based, Lactococcus lactis; conditions: co-expressed with PapRecT and PaSSB
Experimental: as §1
A single colony of L. lactis was grown overnight to saturation. 500 μL of dense culture was inoculated into 5 mL of fresh media, supplemented with 500 mM sucrose and 2.5% (w/v) glycine, and grown for 3 hours. To induce gene expression of the pJP005 vector for recombineering experiments, the cells were grown for an additional 30 min after adding 1 ng/mL freshly diluted nisin, unless stated otherwise. For the optimized condition (FIG. 20B), 10 ng/mL nisin was used. Cells were pelleted at 4° C. by centrifugation at 5,000×g for 5 minutes and washed twice with 2 mL of ice-cold electroporation buffer (500 mM sucrose containing 10% (w/v) glycerol) by centrifugation at 13,200×g for 2.5 minutes. Cells were resuspended in 80 μL ice-cold electroporation buffer containing DNA and transferred to a pre-chilled 0.1 cm electroporation cuvette.
as §2

Molecule	Editing efficiency (enrichment) relative to other SSAP candidates (Staphylococcus aureus)	other results
EcSSB: single-stranded binding protein from E. coli [reference compound]	–	Effect of SSB on oligonucleotide annealing [1]: completely inhibited oligonucleotide annealing
B1	–	Improvement of oligo incorporation (E. coli): 290 fold; Toxicity in L. rhamnosus (L. rhamnosus): toxic
B2	–	Effect of SSB on oligonucleotide annealing [1]: completely inhibited oligonucleotide annealing
B3	increase in editing efficiency	–
B4	increase in editing efficiency	–
B5	increase in editing efficiency	–
B6	increase in editing efficiency	–
B7	increase in editing efficiency	–
B8	increase in editing efficiency	–
B9	–	Function of dominant negative MutL (L. lactis): enabled the efficient introduction of 1 bp pair changes
